{"source": "paper PMC4277400", "molecular_target": "H1-HFBI: hemagglutinin ectodomain of influenza A/Texas/05/2009 (H1N1) fused to hydrophobin I (Influenza A/Texas/05/2009 (H1N1) virus | Trichoderma reesei) (UniProt P52754)", "test": "SEC"}
{"substance": "H1-HFBI: hemagglutinin ectodomain of influenza A/Texas/05/2009 (H1N1) fused to hydrophobin I (from UniProt P52754 23-97)", "values": [{"measurement": "ratio of HMWO/monomer", "result": 2}]}
